Test results: a protein production outcome set (Wang et al. 2014)

Assay: label from the status in PepcDB records

Sequence	protein production
MFSEVEMARDVAICAKHLNGQSPHQPILCRLLQDLIHEKACREHGFYLGITALKSIGNNKNNNIDNENNHQAKILTFPVSFTCRTFLPARGDILQGTVKKVLWNGAFIRSGPLRYAYLSLLKMPHYHYVHSPLSEDEKPHFQKDDLSKIAVGVVVRFQVLAVRFKERPHKRRNDYYVLATLEGNGSFGPISLTGSDEPYM	failed
MGQELLVRAHEPETADIEIIPVTTVVQVTEQNSTGDAAVALDTVTVVGERYVDDIVATLTTLRVGMAVLLQRESGNQYDDNAISVWTLQHAKLGYIARYQNQPYATLMDQGQRLYGIVTVLDQQKQHLELMLWRTTAVPSPIEALEHHHHHH	failed
MNKEEQEDPQQEQISTVQENDPRNLQQLGMLLVSPGLDEDRLSEKMISKIKKSRDIEKNQKLLISRLSQKEEDHSGKPPTITTSPAEKTVPFKSLNHSLKRKRVPPALNFSDIQASSHLHGSKSAPPNITRFPQHKNSLRVRYMGRMAPTNQDYHPSVANSYMTATYPYPYTGLPPVPCYPYSSTPTQTHAYEGYYSPMYPGPLYNNGIIPADYHAKRKKLAGRSPHLEDLTSRKRTFVSKHHNGDPIISKTDEDIECSVTKNSLSEGASLNDDADDDNDKERIIIGEISLYDDVFKFEVRDDKNDYMKACETIWTEWHNLKK	failed
MSLTSTATDSPLKYYDIGLNLTDPMFHGIYNGKQYHPADYVKLLERAAQRHVKNALVTGSSIAESQSAIELVSSVKDLSPLKLYHTIGVHPCCVNEFADASQGDKASASIDNPSMDEAYNESLYAKVISNPSFAQGKLKELYDLMNQQAKPHDTSFRSIGEIGLDYDRFHYSSKEMQKVFFEEQLKISCLNDKLSSYPLFLHMRSACDDFVQILERFVVGFTDEKDTFQLQKLGASSSSGFYKFHPDRKLVVHSFTGSAIDLQKLLNLSPNIFIGVNGCSLRTEENLAVVKQIPTERLLLETDAPWCEIKRTHASFQYLAKYQEVRDFEYPAFKSVKKNKLADKLNAEELYMVKGRNEPCNMEQVAIVVSEVKDVDLATLIDTTWKTTCKIFGEGHHHHHH	not failed
MATEIGSPPRFFHMPRFQHQAPRQLFYKRPDFAQQQAMQQLTFDGKRMRKAVNRKTIDYNPSVIKYLENRIWQRDQRDMRAIQPDAGYYNDLVPPIGMLNNPMNAVTTKFVRTSTNKVKCPVFVVRWTPEGRRLVTGASSGEFTLWNGLTFNFETILQAHDSPVRAMTWSHNDMWMLTADHGGYVKYWQSNMNNVKMFQAHKEAIREASFSPTDNKFATCSDDGTVRIWDFLRCHEERILRDTCFHHCRCYFLSVKR	failed
LEMKGKRMSVTAVMRELEKEENLYRRSGGGITLSGGEPLAQPEFARELLKACKAKGWHTAIETSGFTTKAVIDEVFPYVDLALTDIKAIDPEIHERNTGVNNRVILENLLRISFLTKVVVRIPVIPGVNDNSQEIHNIAEFARLMQNVDTIHLLPYHSFGENKYNLLGRQYPMGDTKSIEESQMAELKAMVESLGFNCHIGG	failed
MGTALVYHEDMTATRLLWDDPECEIECPERLTAALDGLRQRGLEERCLCLSACEASEEELGLVHSPEYIALVQKTQTLDKEELHALSKQYDAVYFHPDTFHCARLAAGAALQLVDAVLTGAVHNGLALVRPPGHHSQRAAANGFCVFNNVALAAKHAKQKYGLQRILIVDWDVHHGQGIQYIFNDDPSVLYFSWHRYEHGSFWPFLPESDADAVGQGQGQGFTVNLPWNQVGMGNADYLAAFLHVLLPLAFEFDPELVLVSAGFDSAIGDPEGQMQATPECFAHLTQLLQVLAGGRICAVLEGGYHLESLAQSVCMMVQTLLGDPTPPLLGLMVPCQSALESIQSVQTAQTPYWTSLQQNVAPVLSSSTHSPEERSLRLLGESPTCAVAEDSLSPLLDQLCLRPAPPICTAVASTVPGAALCLPPGVLHQEGSVLREETEAWARLHKSRFQDEDLATLGKILCLLDGIMDGQIRNAIATTTALATAATLDVLIQRCLARRAQRVLCVALGQLDRPLDLADDGRILWLNIRGKDAAIQSMFHFSTPLPQTTGGFLSLILGLVLPLAYGFQPDMVLMALGPAHGLQNAQAALLAAMLRSPVGGRILAVVEEESIRLLARSLAQALHGETPPSLGPFSKATPEEIQALMFLKARLEARWKLLQVAAPPP	failed
MRLSRIKLPKINSLYGRIFAIFWFTMLLVLIAVLSLPHLDPRKARDIPDEHYQRIIETRDAIQNKYSKETDLGRILFRVEGNRAGKHDPRPRVFFSDYNGNVLTTDKRSNFQLRAMQNFVTSIEDYNKPKQRLYGRYMIAGPVPIVLADSELLMYVGFKWNEPPPLLLRLFDHPFQLLLAVMLVSTPLLLWLAWALSQPARRLEAAAQRVAKGEFVIDPNLEKGTAEFRQAGSSFNQMVEAVNQMISGQQRLLSDISHELRSPLTRLRMASALATRKQGDSPELVRIDTEAQRLEQMISELLELSRMQVNSHMTRETQPIESLWEEIIKDAQFEAEQMGKTLRYSEIPERHISGNPKLLMSAVENIIRNAIYYGKDEVQIDIQDKTDTLTITVDDNGDGVPDEELEAIFRPFYRVSTARDRHSGGTGLGLTITESAIRQHSGTIVASRSPLGGLRVSITLPLVKVGK	failed
MRYAAVLVEVGGTHRCLPLDSDGDLNIVASFDRRGKHIYTGNAKGKILVLDAETFEVVASFRIIVGTSSATAVKSIEFARRGDAFLINTSDRVIRVYDSKEIIILGKDGEPEPIQKLQDLVNKTTWKKCCFSGDGEYICAGSARQHALYIWEKSIGNLVKILHGTKGELHKQKRIRSFLERLAKDVPRIKNHLTLPNRFLFSSYRYYIRTI	failed
MKIFRSIDEIREPLPSPVVTIGNFDGVHLGHREIFRRVKREAARLDGVSMVITFTPHPLKVLGLRKELRLINTYAEKELLIEASGIDCLLTIPFTAEFAAIGAERFVGEILVGRIGVKKLVIGYDYAFGRNREGDVAMLRRMGEEHGFEVEVLEQIASGETVYSSSAVRRMIAAGNVREVVSLIGRHYSVGGTVVHGRRRGKDLGFPTANLRTEKELIPAAGVYAVKVRVDDTIRDGACNIGNNPTFGNEEVTVEVHILDFDGDLYGKEIRVYFVDRVREELRYPDLNALKEGISRDVARCRELLAGVSIIEYRDYLGGDAA	failed
MGGEASPRSLQDWRHVHNTIIPAHVLSLDDVRERAGRNRLEVAYLDDVLVGCSTVRPPADAPTPDAPATATVIARVLAAHRGRGFGGEMYERGLKHARALGAQVIETVVLSSNPDGLRFALKHGFAETERYLLPGDTVPWIDLRLSV	failed
MKHTIGILGGMGPAATADMLEKFVELRHASCDQQHIPLIVSSIPDIPDRTACLLSGGPSPYRYLERYLHMLEDAGAECIVIPCNTAHYWFDDLQNVAKARMISILDATLGDIPPSARHVGLLATNATLATGLYQKKALARGLTLIQPEDAGQALVMQAIYTLKRGDKTAAQALLLPQIDSLIARGAQAIIMGCTEIPLIVAGHERAIACPMIDSTASLVRAAIRWYESWPDTRASLTGEQRLTA	not failed
MVSWHPSVYLAQRTSKAAKNILAAPPLILSISFIFLILIGTLILKLPISTTVPVTWSQSLFNATSAVTVTGLVVFDVGTVYTTFGQVVIALLIQLGGLGIMTFAIVTLLALGAKIGFLQNTIAKEAYNSTNTATLVTTAKSVLIFSLCVELIGMIILAVSWSDELGWRTSLFHGFFYTISAFNNAGIGLSPDSLMPYVEDPIINLTITALFIIGGLGFTVWIDLWRKKRWDKLTTYSKMMIIGTISINAIAVLAIYCIEYNNPKTLVPLSETGKWLASWFQAVTPRTAGFNTLAMNELEDATTAIMLMLMFIGGGSLSTASGIKVVTFMVLILATYGYLRRYDFVYVYHRGISKDTISKALALAMISVGTIWASIFFLLLSENASMIDIIFEAVSAFGTVGLSRGLTSNLTVTGQFIIIFLMFMGRLGPLTLAYFLASPKSKRIRYPETKLTIG	failed
MTHVQTMLETYPKDLGDIDRAKLIECIKACFECAQTCTACADACLSEDMVAELTKCIRTNLDCADICVATGNMLSRHTGYDANVTRAVLEACRTVCKACADECEQHASMHEHCRACAEACRRCEKACADLLGSLG	failed
MRDFGEILAENRKKKGYSQSDLVNLLSQEGIQVTTKALSKWENNAREPALHVFLTLCQLLDIEDIYESFFGENPYNIMSGLNEEGRNKLIEFADILKASKKFSPLSAKIIPFHHPVEITWEPVSAGTGNYLEDSVKETYDVGHLAPEQTDFGVRISGDSMEPLYHTDDVAWIQKKDSLANGEIGIFYLNGNTYIKELHDEPDGVYLISLNQKYRPIQVLESDSFKIFGKVIGKCKGAEIPGFHLEHHHHHH	not failed
MVTTRKPLRAAIIGLGRLGERHARHLVNKIQGVKLVAACALDSNQLEWAKNELGVETTYTNYKDMIDTENIDAIFIVAPTPFHPEMTIYAMNAGLNVFCEKPLGLDFNEVDEMAKVIKSHPNQIFQSGFMRRYDDSYRYAKKIVDNGDIGKIIYMRGYGIDPISGMESFTKFATEADSGGIFVDMNIHDIDLIRWFTGQDPVQAYGLTSNIAAPQLADIGEFETGVAQLKMSDGVIATLIGGRHAAHGNQVELEVMGSNGWVRIGEHPDLNRVTVFNDQGVVRPSLQSFGERFDTAFTDEVQDFVNNVIVGKQPEVTVDDGIKALKIAKACQQSANIGKLVDIQL	failed
MIMTVLRQQPRAAGLVLGLIAANFLAWCWALQAFGDSGALMAASLLAWGYGLRHAVDADHIAAIDNVTRKMMQQGRRPFAVGAWFSLGHSSIVVLASAAIAATATAFSTQMSWLHDTGSVIGTAVSALFLLAMAFINLVILRSVWRSFRAWKRGEPVSDEIVSGGGVMSWLFGKTFRLISRSWQMYLVGFLFGLGFDTATEIGVLGISAAGASSGISVWSIMVFPALFASGMALVDTLDNVLMVGAYGWAFSKPQRKLYYNMTITGTSVVVALFIGGLEALGLLMDKFALSGGIWRWVGALNDNLGDAGFVVVGLFVACWALSVLNYRWRGYDNLAR	failed
MSLEEWIKADSLEKADEYHKRYNYAVTNPVRRKILRMLDKGRSEEEIMQTLSLSKKQLDYHLKVLEAGFCIERVGERWVVTDAGKIVDKIRG	not failed
MGVDMELKVEASLREARTLLAAKQYSQAANVAHSLFCTCHKFNLQIEKASVLLLLAEIHKKSGNAVLGLPYALASISFCQSFNLDLLKASATLTLAELWLGLGSNHTKRALDLLHGAFPMILGHGGLELRARAYIFEANCYLSDPSSSVSTDSDTVLDSLRQASDELQALEYHELAAEASYLMAMVYDKLGRLDEREEAASLFKKHIIALENPQDVEQNMA	failed
MKISTKDLVLCALFAAISCVLAQISIQLPFSPVPFTMQVMAVYLAGIILGAKKGFISQLVYVVLGAIGAPVFANFTGGVGAILGPAGGFIIAFPFMALIVGCVADKCRTKAYIIISMVLASVVCYVFGALWLVLVTKISFALAIKTAVLPFILFDMLKIIIVSIIGINIRSRIISGGLA	failed
TPSRVEAFDNSNIHGTDPVSAMVTFLDGKPSKNDYRKYKIKTVEGPDDYATMREVIRRRYWRVLKEGLPMPDLILIDGGKGQIDSAKDVLTNELGLDIPVAGLAKDDKHRTSQLLFGDPLEIVPLERNSQEFYLLQRMQDEVHRFAITFHRQLRSKTGFQSILDGIPG	failed
MSPFESMEKFPHLLVLDFDGVLCDGLQEYFQTSCQVCRQIWPDLPREKLDRQRDNFYFLRPVIETGWEMPLLLKALATGVEPAAIEAAWPAVAQTLQRQEQIGKSQLAPVLDQVRDNYIHNDLAYWLGLHHFYPGVIGQLNHWLQSPYPQWLYVVTTKEGRFVQQLLKNQKVDFPLGQIIGKEIKQPKFKTLEQLRVKHQCDGDRLWFVEDMLT	failed
MSTKLYYIYDPMCSWCWGYRPVWDLLQQHLPKSIDVEYVAGGLAPDSDSAMPIDQQQMIQNHWRTIEQKLGTKFNYDFWRENTARRSTYNACRAAIAAHKQSCQKAMIDAIQQAYYLRALNPSDVDVLVSVAKELSEQTSPTLDVAQFIVDINSSETNKELAKQVTLARELTQQGFPSLVLDVDGVIQQIPLDYSDYKTTLAYIIKKTS	failed
